{"source": "patent US20200010567A1", "about": "(NEURIMMUNE, published 2020)", "binders": {"B1": {"name": "NI-308.45C2 (antibody, V domains shown)", "VH": "QLQLQESGPGLVKPSQILSLTCAISGDSVFSNSAAWNWIRQSPSRGLEWLGRTYYRSKWDNDYAPSVKSRISINPDTSKNQFSLQLNSVTPEDTAVYYCAREVAYCGGDCYSVSFDYWGQGTLVTVSS", "VL": "not shown", "notes": "Recombinant complete human IgG1, kappa"}, "B2": {"name": "NI-308.24E11 (antibody, V domains shown)", "VH": "QVQLQESGPGLVKPSETLSLTCTVSTTSLRSYFWSWIRQPPGKGLEWIGYVYYSGSTIYNPSLKNRVTISIDTSKNQFSLNLRSVTAADTAMYFCARGVPAETDARDFPPYYFDHWGQGTLVTVSS", "VL": "CDIQLTQSPSSLSASVGNRITFTCQASQDIRYYLNWYQQKPGKAPKLLIYDVSNLDTGVPPRFSGSGSGTNFTFTISSLQPEDIAVYYCQQYEGLPVTFGGGTKVEIK", "notes": "as for B1"}, "B3": {"name": "NI-308.5G2 (antibody, V domains shown)", "VH": "EVQLVQSGADLRNPGASVTVSCTASGYHFADNAINWLRQAPGQRLEWMGWINIYSGNTKYSQNFQGRVTFTRNTSASTAFMHLRSLRSEDTAVYFCARDPDSSGYYLPYFDYWGQGTLVTVSS", "VL": "DIQLTQSPDSLTLSLGERATINCKSSQSVFYNSNNKNYLAWYQQKPGQPPKLLMYWASTRESGVTDRFSGSGSGTDFTLTITNLQAEDVAVYYCQQFYSSPLTFGGGTKVEIK", "notes": "as for B1"}, "B4": {"name": "NI-308.6B11 (antibody, V domains shown)", "VH": "EVQLVQSGAEVKRPGASVKVSCKVSGYTLTELSMHWVRQAPGKGLEWMGGFDPEDGETVYAQKFQGRVTMTEDTSTDTAYMELSSLRSEDTALYHCATYGSSWHWNEGNEGSYYFDYWGQGTLVTVSS", "VL": "CDIQMTQSPSSLSASVGDRVTITCQASQDISIYLNWYQQKPGKAPKLLIYDASNLETGVPSRFSGSGSGTDFTFTISGLQPEDVARYYCQQYDDLPITFGQGTRLEIK", "notes": "as for B1"}}, "key": {"GA3: H-(GA)3HHHHHH-NH2": {"molecular_target": "T1, GA3: H-(GA)3HHHHHH-NH2", "T1 peptide": "H-GAGAGAHHHHHH-NH2", "assay": "indirect ELISA, His-tagged peptide coated at 50 ug/ml, antibody titrated [also D00025 FIG. 7I]", "procedure": "(§1) 96-well microplates (Corning Incorporated, Corning, USA) were coated with dipeptide repeat protein peptides at a concentration of 50 μg/ml in coating buffer (15 mM Na₂CO₃, 35 mM NaHCO₃, pH 9.42). Non-specific binding sites were blocked for 1 h at room temperature with PBS/0.1% Tween®-20 containing 2% BSA (Sigma-Aldrich, Buchs, Switzerland). Primary antibodies were diluted to the indicated concentrations and incubated 1 h at room temperature, followed by incubation with a donkey anti-human IgG Fcγ-specific antibody conjugated with HRP (Jackson ImmunoResearch Laboratories, Inc., West Grove, USA). Binding was determined by measurement of HRP activity in a standard colorimetric assay. EC₅₀ values were estimated by non-linear regression using GraphPad Prism software (San Diego, USA).\n(§2) High affinity binding was detected for poly-GA DPRs harboring 10 or 20 (GA)-repeats, reflected in an EC₅₀ in the subnanomolar or low nanomolar range (FIGS. 7A, 7C-7I)."}, "[1]": {"molecular_target": "T2, BSA-coupled (PR)15 DPR protein peptide (bovine, conjugated via a bifunctional linker (SMCC) to bovine serum albumin)", "T2 construct": "also called BSA-(PR)15", "T2 sequence (peptide, as listed by the source limits assumed, chain 1 of 2)": "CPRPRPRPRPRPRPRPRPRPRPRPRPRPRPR", "T2 sequence (P02769 25-607 limits assumed, chain 2 of 2)": "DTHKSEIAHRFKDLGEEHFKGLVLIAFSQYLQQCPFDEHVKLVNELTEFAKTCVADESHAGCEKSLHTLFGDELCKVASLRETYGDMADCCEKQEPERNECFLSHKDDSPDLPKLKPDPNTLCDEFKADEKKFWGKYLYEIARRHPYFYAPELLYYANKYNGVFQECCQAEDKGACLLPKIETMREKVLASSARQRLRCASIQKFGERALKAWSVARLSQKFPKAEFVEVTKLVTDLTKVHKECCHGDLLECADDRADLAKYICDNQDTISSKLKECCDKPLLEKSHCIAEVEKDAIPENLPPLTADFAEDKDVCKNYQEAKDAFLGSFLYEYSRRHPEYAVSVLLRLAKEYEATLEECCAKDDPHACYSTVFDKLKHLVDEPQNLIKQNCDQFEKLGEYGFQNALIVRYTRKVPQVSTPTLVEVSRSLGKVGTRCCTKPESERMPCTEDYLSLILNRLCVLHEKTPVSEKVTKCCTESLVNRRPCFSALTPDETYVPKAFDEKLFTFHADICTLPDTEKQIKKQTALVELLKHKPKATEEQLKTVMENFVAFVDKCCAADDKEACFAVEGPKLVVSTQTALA", "assay": "indirect ELISA, BSA-coupled peptide coated, antibody titrated [also D00013 FIG. 3F]", "procedure": "as §1, with “In brief, dipeptide repeat proteins were synthesized and purified by Schafer-N(Copenhagen, Denmark): (GA)₁₅: H-CHHHHHH(GA)₁₅-OH; (GP)₁₅: H-C(GP)₁₅-OH; (GR)₁₅: H-C(GR)₁₅-OH; (PA)₁₅: H-C(PA)₁₅-OH; (PR)₁₅: H—C(PR)₁₅-OH. DPR protein peptides were then conjugated via a bifunctional linker (SMCC) to bovine serum albumin (BSA). 96-well microplates” for “96-well microplates”, “coated with BSA-coupled or -uncoupled dipeptide repeat” for “coated with dipeptide repeat”, “concentration of either 5 μg/ml or 20 μg/ml in” for “concentration of 50 μg/ml in”"}, "(GP)15: H-C(GP)15-OH": {"molecular_target": "T3, (GP)15: H-C(GP)15-OH", "T3 construct": "synthetic, not coupled to BSA; also called poly-GP DPR protein peptide", "T3 peptide": "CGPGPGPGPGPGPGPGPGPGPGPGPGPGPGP", "assay": "indirect ELISA, uncoupled peptide coated, antibody titrated [also D00014 FIG. 3G]", "procedure": "as §1, with “In brief, dipeptide repeat proteins were synthesized and purified by Schafer-N(Copenhagen, Denmark): (GA)₁₅: H-CHHHHHH(GA)₁₅-OH; (GP)₁₅: H-C(GP)₁₅-OH; (GR)₁₅: H-C(GR)₁₅-OH; (PA)₁₅: H-C(PA)₁₅-OH; (PR)₁₅: H—C(PR)₁₅-OH. DPR protein peptides were then conjugated via a bifunctional linker (SMCC) to bovine serum albumin (BSA). 96-well microplates” for “96-well microplates”, “coated with BSA-coupled or -uncoupled dipeptide repeat” for “coated with dipeptide repeat”, “concentration of either 5 μg/ml or 20 μg/ml in” for “concentration of 50 μg/ml in”"}, "GP5: H-(GP)5HHHHHH-NH2": {"molecular_target": "T4, GP5: H-(GP)5HHHHHH-NH2", "T4 peptide": "H-GPGPGPGPGPHHHHHH-NH2", "assay": "indirect ELISA, coated His-tagged peptide; indirect ELISA, peptide coated directly on the plate", "source_text": "(§3) In brief, dipeptide repeat proteins were synthesized and purified by Schafer-N (Copenhagen, Denmark): GA₂₀: H-(GA)₂₀HHHHHH-NH₂; GA₁₀: H-(GA)₁₀HHHHHH-NH₂; GA₆: H-(GA)₆HHHHHH-NH₂; GA₅: H-(GA)₅HHHHHH-NH₂; GA₄: H-(GA)₄HHHHHH-NH₂; GA₃: H-(GA)₃HHHHHH-NH₂; GA₂: H-(GA)₂HHHHHH-NH₂; GP₂₀: H-(GP)₂₀HHHHHH-NH₂; GP₁₀: H-(GP)₁₀HHHHHH-NH₂; GP₆: H-(GP)₆HHHHHH-NH₂; GP₅: H-(GP)₅HHHHHH-NH₂; GP₄: H-(GP)₄HHHHHH-NH₂; GP₃: H-(GP)₃HHHHHH-NH₂; GP₂: H-(GP)₂HHHHHH-NH₂. GR₂₀: H-(GR)₂₀HHHHHH-NH₂; GR₁₀: H-(GR)₁₀HHHHHH-NH₂; GR₆: H-(GR)₆HHHHHH-NH₂; GR₅: H-(GR)₅HHHHHH-NH₂; GR₄: H-(GR)₄HHHHHH-NH₂; GR₃: H-(GR)₃HHHHHH-NH₂; GR₂: H-(GR)₂HHHHHH-NH₂; PA₂₀: H-(PA)₂₀HHHHHH-NH₂; PA₁₀: H-(PA)₁₀HHHHHH-NH₂; PA₆: H-(PA)₆HHHHHH-NH₂; PA₅: H-(PA)₅HHHHHH-NH₂; PA₄: H-(PA)₄HHHHHH-NH₂; PA₃: H-(PA)₃HHHHHH-NH₂; PA₂: H-(PA)₂HHHHHH-NH₂; PR₂₀: H-(PR)₂₀HHHHHH-NH₂; PR₁₀: H-(PR)₁₀HHHHHH-NH₂; PR₆: H-(PR)₆HHHHHH-NH₂; PR₅: H-(PR)₅HHHHHH-NH₂; PR₄: H-(PR)₄HHHHHH-NH₂; PR₃: H-(PR)₃HHHHHH-NH₂; PR₂: H-(PR)₂HHHHHH-NH₂. 96-well microplates (Corning Incorporated, Corning, USA) were coated with dipeptide repeat protein peptides at a concentration of 50 μg/ml in coating buffer (15 mM Na₂CO₃, 35 mM NaHCO₃, pH 9.42). Non-specific binding sites were blocked for 1 h at room temperature with PBS/0.1% Tween®-20 containing 2% BSA (Sigma-Aldrich, Buchs, Switzerland). Primary antibodies were diluted to the indicated concentrations and incubated 1 h at room temperature, followed by incubation with a donkey anti-human IgG Fcγ-specific antibody conjugated with HRP (Jackson ImmunoResearch Laboratories, Inc., West Grove, USA). Binding was determined by measurement of HRP activity in a standard colorimetric assay. EC₅₀ values were estimated by non-linear regression using GraphPad Prism software (San Diego, USA)."}, "GP4: H-(GP)4HHHHHH-NH2": {"molecular_target": "T5, GP4: H-(GP)4HHHHHH-NH2", "T5 peptide": "H-GPGPGPGPHHHHHH-NH2", "assay": "indirect ELISA, His-tagged peptide coated at 50 ug/ml, antibody titrated [also D00026 FIG. 7J]", "source_text": "as §3"}, "GP3: H-(GP)3HHHHHH-NH2": {"molecular_target": "T6, GP3: H-(GP)3HHHHHH-NH2", "T6 peptide": "H-GPGPGPHHHHHH-NH2", "assay": "indirect ELISA, His-tagged peptide coated at 50 ug/ml, antibody titrated [also D00026 FIG. 7J]", "source_text": "as §3"}, "GP2: H-(GP)2HHHHHH-NH2": {"molecular_target": "T7, GP2: H-(GP)2HHHHHH-NH2", "T7 peptide": "H-GPGPHHHHHH-NH2", "assay": "indirect ELISA, His-tagged peptide coated at 50 ug/ml, antibody titrated [also D00026 FIG. 7J]", "source_text": "as §3"}, "GR2: H-(GR)2HHHHHH-NH2": {"molecular_target": "T8, GR2: H-(GR)2HHHHHH-NH2", "T8 peptide": "H-GRGRHHHHHH-NH2", "assay": "indirect ELISA, His-tagged peptide coated at 50 ug/ml, antibody titrated [also D00026 FIG. 7L]", "procedure": "as §1, §2"}}, "data": [{"binder": "B1", "values": [{"measurement": "binding result", "setting": "GA3: H-(GA)3HHHHHH-NH2", "result": "no binding (tested: about 4x10^5 pM (last point))"}]}, {"binder": "B2", "values": [{"measurement": "EC50", "setting": "[1]", "result": "> 200", "unit": "nM"}]}, {"binder": "B3", "values": [{"measurement": "EC50", "setting": "(GP)15: H-C(GP)15-OH", "result": 0.4, "unit": "nM"}, {"measurement": "EC50", "setting": "GP5: H-(GP)5HHHHHH-NH2", "result": "> 200", "unit": "nM"}, {"measurement": "binding result", "setting": "GP4: H-(GP)4HHHHHH-NH2", "result": "no binding (tested: about 4x10^5 pM (last point))"}, {"measurement": "binding result", "setting": "GP3: H-(GP)3HHHHHH-NH2", "result": "no binding (tested: about 4x10^5 pM (last point))"}, {"measurement": "binding result", "setting": "GP2: H-(GP)2HHHHHH-NH2", "result": "no binding (tested: about 4x10^5 pM (last point))"}]}, {"binder": "B4", "values": [{"measurement": "binding result", "setting": "GR2: H-(GR)2HHHHHH-NH2", "result": "no binding (tested: about 4x10^5 pM (last point))"}]}]}
